The labels stand for the following.
B1: ATP-dependent helicase SGS1 (Saccharomyces cerevisiae), P35187 (parent)
chain: MVTKPSHNLRREHKWLKETATLQEDKDFVFQAIQKHIANKRPKTNSPPTTPSKDECGPGTTNFITSIPASGPTNTATKQHEVMQTLSNDTEWLSYTATSNQYADVPMVDIPASTSVVSNPRTPNGSKTHNFNTFRPHMASSLVENDSSRNLGSRNNNKSVIDNSSIGKQLENDIKLEVIRLQGSLIMALKEQSKLLLQKCSIIESTSLSEDAKRLQLSRDIRPQLSNMSIRIDSLEKEIIKAKKDGMSKDQSKGRSQVSSQDDNIISSILPSPLEYNTSSRNSNLTSTTATTVTKALAITGAKQNITNNTGKNSNNDSNNDDLIQVLDDEDDIDCDPPVILKEGAPHSPAFPHLHMTSEEQDELTRRRNMRSREPVNYRIPDRDDPFDYVMGKSLRDDYPDVEREEDELTMEAEDDAHSSYMTTRDEEKEENELLNQSDFDFVVNDDLDPTQDTDYHDNMDVSANIQESSQEGDTRSTITLSQNKNVQVILSSPTAQSVPSNGQNQIGVEHIDLLEDDLEKDAILDDSMSFSFGRQHMPMSHSDLELIDSEKENEDFEEDNNNNGIEYLSDSDLERFDEERENRTQVADIQELDNDLKIITERKLTGDNEHPPPSWSPKIKREKSSVSQKDEEDDFDDDFSLSDIVSKSNLSSKTNGPTYPWSDEVLYRLHEVFKLPGFRPNQLEAVNATLQGKDVFVLMPTGGGKSLCYQLPAVVKSGKTHGTTIVISPLISLMQDQVEHLLNKNIKASMFSSRGTAEQRRQTFNLFINGLLDLVYISPEMISASEQCKRAISRLYADGKLARIVVDEAHCVSNWGHDFRPDYKELKFFKREYPDIPMIALTATASEQVRMDIIHNLELKEPVFLKQSFNRTNLYYEVNKKTKNTIFEICDAVKSRFKNQTGIIYCHSKKSCEQTSAQMQRNGIKCAYYHAGMEPDERLSVQKAWQADEIQVICATVAFGMGIDKPDVRFVYHFTVPRTLEGYYQETGRAGRDGNYSYCITYFSFRDIRTMQTMIQKDKNLDRENKEKHLNKLQQVMAYCDNVTDCRRKLVLSYFNEDFDSKLCHKNCDNCRNSANVINEERDVTEPAKKIVKLVESIQNERVTIIYCQDVFKGSRSSKIVQANHDTLEEHGIGKSMQKSEIERIFFHLITIRVLQEYSIMNNSGFASSYVKVGPNAKKLLTGKMEIKMQFTISAPNSRPSTSSSFQANEDNIPVIAQKSTTIGGNVAANPPRFISAKEHLRSYTYGGSTMGSSHPITLKNTSDLRSTQELNNLRMTYERLRELSLNLGNRMVPPVGNFMPDSILKKMAAILPMNDSAFATLGTVEDKYRRRFKYFKATIADLSKKRSSEDHEKYDTILNDEFVNRAAASSNGIAQSTGTKSKFFGANLNEAKENEQIINQIRQSQLPKNTTSSKSGTRSISKSSKKSANGRRGFRNYRGHYRGRK

In this experiment the parent is B1. Particulars: with rad53_yeast RAD53, P22216.
Chain of rad53_yeast RAD53, P22216 (P22216 whole entry): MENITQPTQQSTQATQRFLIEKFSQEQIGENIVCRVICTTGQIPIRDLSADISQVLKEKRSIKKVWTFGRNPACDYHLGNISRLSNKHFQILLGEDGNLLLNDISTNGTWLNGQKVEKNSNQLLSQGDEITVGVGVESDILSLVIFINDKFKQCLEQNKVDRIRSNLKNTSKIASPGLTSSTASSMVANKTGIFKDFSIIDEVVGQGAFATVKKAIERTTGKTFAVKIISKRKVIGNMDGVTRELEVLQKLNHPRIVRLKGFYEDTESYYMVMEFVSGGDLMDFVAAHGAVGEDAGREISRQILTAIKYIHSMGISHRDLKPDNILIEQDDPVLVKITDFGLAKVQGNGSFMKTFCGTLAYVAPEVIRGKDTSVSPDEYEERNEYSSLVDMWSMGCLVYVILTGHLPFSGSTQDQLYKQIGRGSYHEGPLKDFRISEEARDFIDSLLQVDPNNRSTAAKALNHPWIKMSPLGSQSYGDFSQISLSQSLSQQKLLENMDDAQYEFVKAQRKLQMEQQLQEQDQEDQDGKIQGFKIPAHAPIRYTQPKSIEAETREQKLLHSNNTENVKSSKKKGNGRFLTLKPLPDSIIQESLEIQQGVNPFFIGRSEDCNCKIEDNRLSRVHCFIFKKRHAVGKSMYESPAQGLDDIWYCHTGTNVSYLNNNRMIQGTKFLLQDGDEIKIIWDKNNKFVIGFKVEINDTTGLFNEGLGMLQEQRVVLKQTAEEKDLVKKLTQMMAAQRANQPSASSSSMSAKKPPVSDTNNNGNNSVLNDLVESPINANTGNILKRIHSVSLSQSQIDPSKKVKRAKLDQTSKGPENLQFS
S470A: the “effect of a mutation on the interaction” value is reported as “decreasing interaction”.

Regarding T585A, the “effect of a mutation on the interaction” value is given as “decreasing interaction”. The entry for S482A is “decreasing interaction”; for T451A it is “decreasing interaction”.

For the origin of these results see IntAct's records for PubMed 22820947.
